B1: Zinc finger CCCH domain-containing protein 7B (Homo sapiens), Q9UGR2 (parent)
chain: MERQKRKADIEKGLQFIQSTLPLKQEEYEAFLLKLVQNLFAEGNDLFREKDYKQALVQYMEGLNVADYAASDQVALPRELLCKLHVNRAACYFTMGLYEKALEDSEKALGLDSESIRALFRKARALNELGRHKEAYECSSRCSLALPHDESVTQLGQELAQKLGLRVRKAYKRPQELETFSLLSNGTAAGVADQGTSNGLGSIDDIETDCYVDPRGSPALLPSTPTMPLFPHVLDLLAPLDSSRTLPSTDSLDDFSDGDVFGPELDTLLDSLSLVQGGLSGSGVPSELPQLIPVFPGGTPLLPPVVGGSIPVSSPLPPASFGLVMDPSKKLAASVLDALDPPGPTLDPLDLLPYSETRLDALDSFGSTRGSLDKPDSFMEETNSQDHRPPSGAQKPAPSPEPCMPNTALLIKNPLAATHEFKQACQLCYPKTGPRAGDYTYREGLEHKCKRDILLGRLRSSEDQTWKRIRPRPTKTSFVGSYYLCKDMINKQDCKYGDNCTFAYHQEEIDVWTEERKGTLNRDLLFDPLGGVKRGSLTIAKLLKEHQGIFTFLCEICFDSKPRIISKGTKDSPSVCSNLAAKHSFYNNKCLVHIVRSTSLKYSKIRQFQEHFQFDVCRHEVRYGCLREDSCHFAHSFIELKVWLLQQYSGMTHEDIVQESKKYWQQMEAHAGKASSSMGAPRTHGPSTFDLQMKFVCGQCWRNGQVVEPDKDLKYCSAKARHCWTKERRVLLVMSKAKRKWVSVRPLPSIRNFPQQYDLCIHAQNGRKCQYVGNCSFAHSPEERDMWTFMKENKILDMQQTYDMWLKKHNPGKPGEGTPISSREGEKQIQMPTDYADIMMGYHCWLCGKNSNSKKQWQQHIQSEKHKEKVFTSDSDASGWAFRFPMGEFRLCDRLQKGKACPDGDKCRCAHGQEELNEWLDRREVLKQKLAKARKDMLLCPRDDDFGKYNFLLQEDGDLAGATPEAPAAAATATTGE

Variants of: B1
Settings: with nsp3_rots4 nsp3, Q00721
nsp3_rots4 nsp3, Q00721, sequence (Q00721 whole entry): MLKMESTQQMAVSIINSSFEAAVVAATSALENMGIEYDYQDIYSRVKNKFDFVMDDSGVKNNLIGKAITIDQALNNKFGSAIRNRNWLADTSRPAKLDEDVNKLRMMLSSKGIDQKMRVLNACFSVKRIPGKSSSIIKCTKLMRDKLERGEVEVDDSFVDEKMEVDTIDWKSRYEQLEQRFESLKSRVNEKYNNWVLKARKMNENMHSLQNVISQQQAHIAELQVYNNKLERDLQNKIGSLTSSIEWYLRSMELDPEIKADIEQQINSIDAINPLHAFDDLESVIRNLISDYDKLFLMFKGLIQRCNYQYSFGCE
For L252A;D253A;D254A, the “effect of a mutation on the interaction” value was “decreasing interaction”.

Reference: IntAct's records for PubMed 15047801
